Reference: patent US20230365662A1
Residue numbers refer to the chain shown, from its start. Names may count otherwise. “And” between values parts separate entries of the source, which are not always exact repeats. Equal values may be shown once.

B1: KB001 mouse Fab FASEBA VH Y106T (Fab, V domains shown)
VH: EVQLKQSGPGLVAPSQSLSITCTVSGFSLSIYSVHWVRQPPGKGLEWLGMIWGGGSSDYNSALKSRLSISKDNSKSQVFLKMNSLQTDDTAMYYCARNGNFYAMDTWGQGTSVTVSS
VL: QIVLTQSPAIMSASLGERVTMTCTASSSVSSSFLHWYQQKPGSSPQLWIYSTSNLASGVPARFSGSGSGTSYSLTISSMEAEDAATYYCHQYHHSPYIYTFGGGTKLEIK
B2: KB001 mouse Fab FASEBA VH I31L (Fab, V domains shown)
VH: B1 VH with I31L, T106Y
VL: B1 VL
B3: KB001 mouse Fab FASEBA VH Y106K (Fab, V domains shown)
VH: B1 VH with T106K
VL: B1 VL
B4: KB001 mouse Fab FASEBA VH S30M (Fab, V domains shown)
VH: B1 VH with S30M, T106Y
VL: B1 VL
B5: KB001 mouse Fab FASEBA VH S30Q (Fab, V domains shown)
VH: B1 VH with S30Q, T106Y
VL: B1 VL
B6: KB001 mouse Fab FASEBA VH Y106V (Fab, V domains shown)
VH: B1 VH with T106V
VL: B1 VL
B7: KB001 mouse Fab FASEBA VH S28G (Fab, V domains shown)
VH: B1 VH with S28G, T106Y
VL: B1 VL
B8: KB001 mouse Fab FASEBA VH L29P (Fab, V domains shown)
VH: B1 VH with L29P, T106Y
VL: B1 VL
B9: KB001 mouse Fab FASEBA VH Y32S (Fab, V domains shown)
VH: B1 VH with Y32S, T106Y
VL: B1 VL
B10: KB001 mouse Fab FASEBA VH Y106N (Fab, V domains shown)
VH: B1 VH with T106N
VL: B1 VL
B11: KB001 mouse Fab FASEBA VH Y106A (Fab, V domains shown)
VH: B1 VH with T106A
VL: B1 VL
B12: KB001 mouse Fab FASEBA VH I31W (Fab, V domains shown)
VH: B1 VH with I31W, T106Y
VL: B1 VL
B13: KB001 mouse Fab FASEBA VH I31F (Fab, V domains shown)
VH: B1 VH with I31F, T106Y
VL: B1 VL
B14: KB001 mouse Fab FASEBA VH S30R (Fab, V domains shown)
VH: B1 VH with S30R, T106Y
VL: B1 VL
B15: KB001 mouse Fab FASEBA VH G26N (Fab, V domains shown)
VH: B1 VH with G26N, T106Y
VL: B1 VL
B16: KB001 mouse Fab FASEBA VH G26D (Fab, V domains shown)
VH: B1 VH with G26D, T106Y
VL: B1 VL
B17: KB001 mouse Fab FASEBA VH L29T (Fab, V domains shown)
VH: B1 VH with L29T, T106Y
VL: B1 VL
B18: KB001 mouse Fab FASEBA VH Y106M (Fab, V domains shown)
VH: B1 VH with T106M
VL: B1 VL
B19: KB001 mouse Fab FASEBA VH Y106I (Fab, V domains shown)
VH: B1 VH with T106I
VL: B1 VL
B20: KB001 mouse Fab FASEBA VH Y32W (Fab, V domains shown)
VH: B1 VH with Y32W, T106Y
VL: B1 VL
B21: KB001 mouse Fab FASEBA VH S28L (Fab, V domains shown)
VH: B1 VH with S28L, T106Y
VL: B1 VL
B22: KB001 mouse Fab FASEBA VH S30F (Fab, V domains shown)
VH: B1 VH with S30F, T106Y
VL: B1 VL
B23: KB001 mouse Fab FASEBA VH S28H (Fab, V domains shown)
VH: B1 VH with S28H, T106Y
VL: B1 VL
B24: KB001 mouse Fab FASEBA VH Y106W (Fab, V domains shown)
VH: B1 VH with T106W
VL: B1 VL
B25: KB001 mouse Fab FASEBA VH S30K (Fab, V domains shown)
VH: B1 VH with S30K, T106Y
VL: B1 VL
B26: KB001 mouse Fab FASEBA VH Y106Q (Fab, V domains shown)
VH: B1 VH with T106Q
VL: B1 VL
B27: KB001 mouse Fab FASEBA VH I31P (Fab, V domains shown)
VH: B1 VH with I31P, T106Y
VL: B1 VL
B28: KB001 mouse Fab FASEBA VH I31N (Fab, V domains shown)
VH: B1 VH with I31N, T106Y
VL: B1 VL
B29: KB001 mouse Fab FASEBA VH Y106F (Fab, V domains shown)
VH: B1 VH with T106F
VL: B1 VL
B30: KB001 mouse Fab FASEBA VH I31Q (Fab, V domains shown)
VH: B1 VH with I31Q, T106Y
VL: B1 VL
B31: KB001 mouse Fab FASEBA VH L29V (Fab, V domains shown)
VH: B1 VH with L29V, T106Y
VL: B1 VL
B32: KB001 mouse Fab FASEBA VH S28R (Fab, V domains shown)
VH: B1 VH with S28R, T106Y
VL: B1 VL
B33: KB001 mouse Fab FASEBA VH S28Y (Fab, V domains shown)
VH: B1 VH with S28Y, T106Y
VL: B1 VL
B34: KB001 mouse Fab FASEBA VH S28A (Fab, V domains shown)
VH: B1 VH with S28A, T106Y
VL: B1 VL
B35: KB001 mouse Fab FASEBA VH S28N (Fab, V domains shown)
VH: B1 VH with S28N, T106Y
VL: B1 VL
B36: KB001 mouse Fab FASEBA VH Y106R (Fab, V domains shown)
VH: B1 VH with T106R
VL: B1 VL
B37: KB001 mouse Fab FASEBA VH S30W (Fab, V domains shown)
VH: B1 VH with S30W, T106Y
VL: B1 VL
B38: KB001 mouse Fab FASEBA VH S30T (Fab, V domains shown)
VH: B1 VH with S30T, T106Y
VL: B1 VL
B39: KB001 mouse Fab FASEBA VH I31E (Fab, V domains shown)
VH: B1 VH with I31E, T106Y
VL: B1 VL
B40: KB001 mouse Fab FASEBA VH S30L (Fab, V domains shown)
VH: B1 VH with S30L, T106Y
VL: B1 VL
B41: KB001 mouse Fab FASEBA VH Y106S (Fab, V domains shown)
VH: B1 VH with T106S
VL: B1 VL
B42: KB001 mouse Fab FASEBA VH S30H (Fab, V domains shown)
VH: B1 VH with S30H, T106Y
VL: B1 VL

What follows are binders tested against HRgpA-6H (Porphyromonas gingivalis) (UniProt P28784) (assay: ELISA on coated HRgpA-6H).
Chain of UniProt P28784 (P28784 228-991 limits assumed): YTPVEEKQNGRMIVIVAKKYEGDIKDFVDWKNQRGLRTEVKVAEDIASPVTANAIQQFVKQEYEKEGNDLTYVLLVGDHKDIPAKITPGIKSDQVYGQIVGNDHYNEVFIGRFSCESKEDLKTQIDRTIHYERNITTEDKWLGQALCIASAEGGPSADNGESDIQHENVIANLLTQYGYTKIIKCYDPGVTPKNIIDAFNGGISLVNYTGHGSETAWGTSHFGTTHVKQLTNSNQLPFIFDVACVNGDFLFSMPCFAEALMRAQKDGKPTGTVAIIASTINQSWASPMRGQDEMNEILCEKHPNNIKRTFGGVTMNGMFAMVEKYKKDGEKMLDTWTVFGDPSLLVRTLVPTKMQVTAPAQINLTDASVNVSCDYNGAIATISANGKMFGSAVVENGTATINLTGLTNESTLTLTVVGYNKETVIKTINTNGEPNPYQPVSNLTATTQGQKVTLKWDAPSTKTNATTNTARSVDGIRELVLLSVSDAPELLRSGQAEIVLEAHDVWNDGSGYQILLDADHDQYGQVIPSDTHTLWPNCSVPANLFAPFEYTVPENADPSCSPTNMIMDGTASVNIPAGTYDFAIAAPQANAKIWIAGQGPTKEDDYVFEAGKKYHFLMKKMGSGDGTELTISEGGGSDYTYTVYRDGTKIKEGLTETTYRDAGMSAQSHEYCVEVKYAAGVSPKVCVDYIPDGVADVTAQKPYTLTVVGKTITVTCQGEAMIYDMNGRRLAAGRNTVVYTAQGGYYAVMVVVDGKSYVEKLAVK

Binder	OD450nm	Ratio OD(Variant)/OD(WT)
B1	0.827	1.07
B2	0.442 and 0.431	0.876 and 0.854
B3	0.807	1.05
B4	0.437	0.866
B5	0.47 and 0.483	0.932 and 0.957
B6	0.795 and 0.84 and 0.802	1.03 and 1.09 and 1.04
B7	0.468 and 0.486	0.867 and 0.9
B8	0.468	0.867
B9	0.717 and 0.783 and 0.718	0.847 and 0.925 and 0.848
B10	0.792	1.03
B11	0.821 and 0.835	1.07 and 1.09
B12	0.459	0.91
B13	0.45	0.892
B14	0.481	0.953
B15	0.445	0.876
B16	0.47 and 0.481	0.925 and 0.947
B17	0.502 and 0.512 and 0.501	0.93 and 0.948 and 0.928
B18	0.794 and 0.84	1.03 and 1.09
B19	0.803	1.04
B20	0.731 and 0.718 and 0.747	0.864 and 0.848 and 0.882
B21	0.435 and 0.468	0.806 and 0.867

Binder	OD450nm	Ratio OD(Variant)/OD(WT)
B22	0.438	0.868
B23	0.511 and 0.526	0.946 and 0.974
B24	0.791 and 0.809 and 0.82	1.03 and 1.05 and 1.07
B25	0.46 and 0.467 and 0.493	0.912 and 0.926 and 0.977
B26	0.792	1.03
B27	0.471 and 0.428	0.934 and 0.848
B28	0.429	0.85
B29	0.815 and 0.856	1.06 and 1.11
B30	0.44 and 0.439	0.872 and 0.87
B31	0.446	0.826
B32	0.458	0.848
B33	0.437	0.809
B34	0.488	0.904
B35	0.53	0.981
B36	0.793	1.03
B37	0.469	0.93
B38	0.457	0.906
B39	0.42 and 0.458 and 0.428	0.833 and 0.908 and 0.848
B40	0.468	0.928
B41	0.852 and 0.849	1.11 and 1.1
B42	0.482	0.955
